From patent publication US20200024330A1

Columns and labels:
Experiment in all cases: cell-based or functional assay
[1] = molecular target: HIV-1 Env of isolate MGRM-AG-009 (HIV-1)
[2] = molecular target: HIV-1 envelope glycoprotein (Env) of isolate MGRM-C-025, on pseudovirus (HIV-1)
[3] = molecular target: HIV-1 Env of isolate MGRM-G-009 (subtype G) (HIV-1)
[4] = molecular target: HIV-1 Env of isolate MGRM-G-006 (subtype G) (HIV-1)
[5] = molecular target: HIV-1 Env of isolate MGRM-G-004 (subtype G) (HIV-1)
[6] = molecular target: aMLV envelope (negative control pseudovirus)
[7] = molecular target: HIV-1 Env of isolate MGRM-G-025 (subtype G) (HIV-1)
[8] = molecular target: HIV-1 envelope glycoprotein (Env) of isolate MGRM-C-028, on pseudovirus (HIV-1)
[9] = molecular target: HIV-1 envelope glycoprotein (Env) of isolate MGRM-C-026, on pseudovirus (HIV-1)
[10] = molecular target: HIV-1 Env of isolate MGRM-AG-011 (HIV-1)
[11] = molecular target: HIV-1 Env of isolate MGRM-AE-008 (HIV-1)
[12] = molecular target: HIV-1 Env of isolate MGRM-AG-012 (HIV-1)
[13] = molecular target: HIV-1 Env of isolate MGRM-G-019 (subtype G) (HIV-1)
[14] = molecular target: HIV-1 Env of isolate MGRM-G-024 (subtype G) (HIV-1)
[15] = molecular target: HIV-1 envelope glycoprotein (Env) of isolate MGRM-C-014, on pseudovirus (HIV-1)
[16] = molecular target: HIV-1 Env of isolate MGRM-AG-006 (HIV-1)
[17] = molecular target: HIV-1 Env of isolate MGRM-AG-008 (HIV-1)
[18] = molecular target: HIV-1 envelope glycoprotein (Env) of isolate MGRM-C-020, on pseudovirus (HIV-1)
[19] = molecular target: HIV-1 Env of isolate MGRM-G-014 (subtype G) (HIV-1)
[20] = molecular target: HIV-1 Env of isolate MGRM-AG-002 (HIV-1)
[21] = molecular target: HIV-1 Env of isolate MGRM-G-027 (subtype G) (HIV-1)
[22] = molecular target: HIV-1 Env of isolate MGRM-AE-007 (HIV-1)
[23] = molecular target: HIV-1 envelope glycoprotein (Env) of isolate MGRM-C-024, on pseudovirus (HIV-1)
[24] = molecular target: HIV-1 Env of isolate MGRM-G-001 (subtype G) (HIV-1)
[25] = molecular target: HIV-1 envelope glycoprotein (Env) of isolate MGRM-C-015, on pseudovirus (HIV-1)
[26] = molecular target: HIV-1 Env of isolate MGRM-AG-005 (HIV-1)
[27] = molecular target: HIV-1 envelope glycoprotein (Env) of isolate MGRM-C-019, on pseudovirus (HIV-1)
[28] = molecular target: HIV-1 Env of isolate MGRM-AG-001 (HIV-1)
[29] = molecular target: HIV-1 Env of isolate MGRM-AG-003 (HIV-1)
[30] = molecular target: HIV-1 Env of isolate MGRM-G-017 (subtype G) (HIV-1)
[31] = molecular target: HIV-1 envelope glycoprotein (Env) of isolate MGRM-C-023, on pseudovirus (HIV-1)
[32] = molecular target: HIV-1 Env of isolate MGRM-G-011 (subtype G) (HIV-1)
[33] = molecular target: HIV-1 Env of isolate MGRM-AG-013 (HIV-1)
[34] = molecular target: HIV-1 envelope glycoprotein (Env) of isolate MGRM-C-017, on pseudovirus (HIV-1)
[35] = molecular target: HIV-1 envelope glycoprotein (Env) of isolate MGRM-C-027, on pseudovirus (HIV-1)
[36] = molecular target: HIV-1 Env of isolate MGRM-G-013 (subtype G) (HIV-1)
[37] = molecular target: HIV-1 envelope glycoprotein (Env) of isolate MGRM-C-022, on pseudovirus (HIV-1)
[38] = molecular target: HIV-1 Env of isolate MGRM-G-015 (subtype G) (HIV-1)
[39] = molecular target: HIV-1 Env of isolate MGRM-G-028 (subtype G) (HIV-1)
[40] = molecular target: HIV-1 Env of isolate MGRM-G-016 (subtype G) (HIV-1)

In the case of PGT-145 (4995_P16) (antibody), the IC50 [1] is reported as > 50 µg/mL, the IC50, pseudovirus neutralization [2] is reported as 0.044 µg/mL and the neutralization IC50 [3] is reported as 0.982 µg/mL. The neutralization IC50 [4] was 0.286 µg/mL, the neutralization IC50 [5] was > 50 µg/mL and the neutralization IC50 [6] was > 50 µg/mL. For the same substance, the neutralization IC50 [7] was > 50 µg/mL, the IC50, pseudovirus neutralization [8] was 0.099 µg/mL and the IC50, pseudovirus neutralization [9] was > 50 µg/mL. The IC50 [10] was 0.003 µg/mL, the IC50 [11] was 1.46 µg/mL and the IC50 [12] was > 50 µg/mL. The neutralization IC50 [13] was 0.041 µg/mL, the neutralization IC50 [14] was 0.06 µg/mL and the IC50, pseudovirus neutralization [15] was 5.82 µg/mL. The IC50 [16] was 6.6 µg/mL, the IC50 [17] was 0.244 µg/mL and the IC50, pseudovirus neutralization [18] was 0.712 µg/mL. It also gave a neutralization IC50 [19] of 0.144 µg/mL, an IC50 [20] of 0.056 µg/mL and a neutralization IC50 [21] of 0.433 µg/mL. It also gave an IC50 [22] of 0.181 µg/mL, an IC50, pseudovirus neutralization [23] of 0.174 µg/mL and a neutralization IC50 [24] of 0.028 µg/mL. It also gave an IC50, pseudovirus neutralization [25] of 0.12 µg/mL, an IC50 [26] of 0.045 µg/mL and an IC50, pseudovirus neutralization [27] of 0.005 µg/mL. The IC50 [28] was 0.164 µg/mL, the IC50 [29] was > 50 µg/mL and the neutralization IC50 [30] was 0.205 µg/mL. It also gave an IC50, pseudovirus neutralization [31] of 0.201 µg/mL, a neutralization IC50 [32] of 0.028 µg/mL and an IC50 [33] of 14.4 µg/mL. For the same substance, the IC50, pseudovirus neutralization [34] was > 50 µg/mL, the IC50, pseudovirus neutralization [35] was 0.095 µg/mL and the neutralization IC50 [36] was > 50 µg/mL. For the same substance, the IC50, pseudovirus neutralization [37] was 0.492 µg/mL, the neutralization IC50 [38] was 10.5 µg/mL and the neutralization IC50 [39] was 0.046 µg/mL. The neutralization IC50 [40] was 0.081 µg/mL.
